Laboratory results from US20200123252A1 (LAMKAP BIO BETA, published 2020).

T1: human CEACAM5 on MKN-45 cells (human, UniProt P06731 35-685)
T1 construct: Endogenous CEACAM5 on MKN-45 gastric adenocarcinoma cells, which also carry CD47 (and CEACAM6); also called CD66e; MKN45 CEA+ cancer cells
T1 sequence: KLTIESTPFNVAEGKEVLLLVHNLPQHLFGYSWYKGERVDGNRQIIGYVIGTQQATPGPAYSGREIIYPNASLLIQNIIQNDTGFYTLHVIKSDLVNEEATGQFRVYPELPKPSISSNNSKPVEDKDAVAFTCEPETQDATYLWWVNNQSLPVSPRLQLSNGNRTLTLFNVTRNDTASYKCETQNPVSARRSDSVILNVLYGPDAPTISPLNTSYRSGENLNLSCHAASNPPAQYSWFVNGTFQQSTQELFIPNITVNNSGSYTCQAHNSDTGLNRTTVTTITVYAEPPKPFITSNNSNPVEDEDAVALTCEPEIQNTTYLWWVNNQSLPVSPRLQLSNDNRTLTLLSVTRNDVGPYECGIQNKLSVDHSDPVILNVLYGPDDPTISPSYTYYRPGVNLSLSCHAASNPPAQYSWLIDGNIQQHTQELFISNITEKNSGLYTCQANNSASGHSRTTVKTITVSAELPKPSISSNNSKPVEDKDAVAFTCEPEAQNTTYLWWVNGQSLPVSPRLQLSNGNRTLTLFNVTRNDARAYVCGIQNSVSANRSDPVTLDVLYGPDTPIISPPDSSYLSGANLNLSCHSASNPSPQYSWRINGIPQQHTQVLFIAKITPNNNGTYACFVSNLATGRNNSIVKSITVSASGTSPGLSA

T2: shed CEA (soluble CEA) (human, UniProt P06731 35-685, limits assumed)
T2 sequence (looked up): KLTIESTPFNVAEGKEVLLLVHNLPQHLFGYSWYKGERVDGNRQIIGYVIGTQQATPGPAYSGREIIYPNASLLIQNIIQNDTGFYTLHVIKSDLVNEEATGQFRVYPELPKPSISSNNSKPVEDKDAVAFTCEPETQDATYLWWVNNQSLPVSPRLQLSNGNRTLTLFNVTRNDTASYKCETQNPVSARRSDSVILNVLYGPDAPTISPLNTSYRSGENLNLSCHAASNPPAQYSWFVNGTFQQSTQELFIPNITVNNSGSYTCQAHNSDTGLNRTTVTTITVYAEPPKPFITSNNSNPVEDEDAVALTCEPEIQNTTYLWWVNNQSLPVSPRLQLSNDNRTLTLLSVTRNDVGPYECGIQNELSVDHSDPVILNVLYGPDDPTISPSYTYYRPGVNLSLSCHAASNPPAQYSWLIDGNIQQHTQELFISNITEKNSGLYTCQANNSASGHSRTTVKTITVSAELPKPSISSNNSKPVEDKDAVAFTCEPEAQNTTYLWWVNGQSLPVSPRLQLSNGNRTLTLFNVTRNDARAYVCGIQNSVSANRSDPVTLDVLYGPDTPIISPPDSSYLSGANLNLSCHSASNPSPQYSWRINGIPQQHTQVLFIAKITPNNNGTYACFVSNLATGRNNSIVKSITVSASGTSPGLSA

T3: human CEACAM6 (human, UniProt P40199 35-320)
T3 construct: also called CD66c; biotinylated recombinant human CEACAM6
T3 sequence (looked up): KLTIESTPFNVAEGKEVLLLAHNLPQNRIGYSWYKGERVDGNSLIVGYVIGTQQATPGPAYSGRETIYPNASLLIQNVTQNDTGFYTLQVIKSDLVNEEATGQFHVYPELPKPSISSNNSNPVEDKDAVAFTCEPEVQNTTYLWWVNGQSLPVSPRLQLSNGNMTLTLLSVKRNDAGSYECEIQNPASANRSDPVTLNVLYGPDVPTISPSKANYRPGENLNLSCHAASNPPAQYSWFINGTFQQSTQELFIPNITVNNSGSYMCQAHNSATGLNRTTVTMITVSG


What was measured:
[1] = molecular target: T1, human CEACAM5 on MKN-45 cells; test: flow cytometry on MKN45 CEA+ cells (carry CEACAM5 and CD47); MKN45 CEA+ cancer cells
[2] = molecular target: T2, shed CEA (soluble CEA); test: cell-based or functional assay
[3] = molecular target: T1, human CEACAM5 on MKN-45 cells; test: binding to MKN-45 cells (MFI), without shed CEA
[4] = molecular target: T4, human CD47 on MKN45 cells (human, UniProt Q08722 19-323); test: inhibition of SIRPα-mouseFc binding to CD47 on MKN45 cells, imaging (CX5)
T4 construct: whole, on cells; also called IAP
Source text: The detection of bound SIRPα cell-based assay monitoring the interaction of soluble SIRPα with human CD47 expressed at the surface of MKN45 is used for the detection of the blocking activity. Dose-response experiments with bispecific antibodies according to the invention allow determination of an IC50 value.
MKN45 cancer cells, expressing both CD47 and CEACAM5, are stained with CFSE violet to allow the imaging system (CX5) to detect the cells. Briefly, 3,000 stained MKN45 cells per well are seeded in a 384 optical well plate (Costar) and incubated for 50 minutes with increased concentrations of bispecific antibodies of the invention (1.9 pM to 333 nM, in quadruplicates). Then, a fixe concentration of SIRPα-mouseFc premixed with anti-mouse IgG-Fc AF647 coupled antibody (Jackson Immunoresearch diluted 1:2000) is added at 50 ng/mL final. After an incubation of 3H30 plates are acquired with the imaging system (CX5, Thermofisher) and fluorescence signals emitted by the detected bound SIRPα is recorded by the software dedicated to the imaging system. Fluorescence signals are plotted according to the dose range tested and IC50 are calculated by the software (Prism, Graphpad).

[5] = molecular target: T1, human CEACAM5 on MKN-45 cells; test: binding to MKN-45 cells (MFI), in the presence of 200 ng/mL shed CEA
[6] = molecular target: T1, human CEACAM5 on MKN-45 cells; test: flow cytometry on MKN45 CEA+ cells (carry CEACAM5 and CD47)
[7] = molecular target: T1, human CEACAM5 on MKN-45 cells; test: FACS binding to MKN-45 cells, which express CD47, CEACAM5 and CEACAM6
[8] = molecular target: T3, human CEACAM6; test: statement in the legend of FIG. 21A (FACS on MKN-45 cells)
[9] = molecular target: T1, human CEACAM5 on MKN-45 cells; test: FACS binding to MKN-45 cells, which express CD47, CEACAM5 and CEACAM6; K2AC39 is cross-reactive to CEACAM6
[10] = molecular target: T3, human CEACAM6; test: ELISA on biotinylated recombinant human CEACAM6 captured on streptavidin, bivalent mAb
Procedure: Biotinylated recombinant human CEACAM5 or CEACAM6 proteins are captured at 0.5 μg/mL in a streptavidin coated 96-well microplate. The plate is washed and monoclonal anti-CEA bivalent antibodies of the present invention are added as a broad concentration-range (e.g. from […] to 1 μg/mL) and incubated during 1 hr. The plate is washed and bound antibodies are detected with an anti-human IgG(Fc)-HRP (Jackson ImmunoResearch). […] The fluorescence signal is measured on a Synergy HT plate reader (Biotek).

Binder	EC50 [1]	shift of EC50 of the phagocytosis index curve of MKN-45 cells by 200 ng/mL shed CEA [2]	EC50 (read off the curve) [3]	IC50 [4]	EC50 (read off the curve) [5]	EC50 [6]	EC50 (read off the curve) [7]	binding result [8]	EC50 (read off the curve) [9]	binding result [10]
K2AC5 CEA×CD47 bispecific antibody (bispecific antibody, human IgG1, kappa, lambda, κλ body, human IgG1, common heavy chain; CEACAM5 arm light chain 1D9 (AC5) with lambda constant domain, CD47 arm kappa light chain KA3 (K2); also called CD47×CEA bispecific antibody K2AC5) heavy: not shown light 1: QSVLTQPPSVSAAPGQKVTISCSGSSSNIGYGLVSWYQQLPGTAPKLLIYAGNLRPSGIPDRFSGSKSGTSATLGITGLQTGDEADYYCGTWDFNYGVVFGGGTKLTVLGQPKAAPSVTLFPPSSEELQANKATLVCLISDFYPGAVTVAWKADSSPVKAGVETTTPSKQSNNKYAASSYLSLTPEQWKSHRSYSCQVTHEGSTVEKTVAPTECS light 2: not shown	11.3 nM	< 4 fold	~0.3 mg/L	0.4 nM	~0.3 mg/L	–	–	–	–	–
K2AC22 CEA×CD47 bispecific antibody (bispecific antibody, human IgG1, kappa, lambda, κλ body, human IgG1, common heavy chain; CEACAM5 arm light chain 1G6 (AC22)) heavy: not shown light 1: QSVLTQPPSVSAAPGQKVTISCSGSSSNIANGIVSWYQQLPGTAPKLLIYFDNLRPSGIPDRFSGSKSGTSATLGITGLQTGDEADYYCGTWDFSYGIVFGGGTKLTVLGQPKAAPSVTLFPPSSEELQANKATLVCLISDFYPGAVTVAWKADSSPVKAGVETTTPSKQSNNKYAASSYLSLTPEQWKSHRSYSCQVTHEGSTVEKTVAPTECS light 2: not shown	–	< 4 fold	~0.5 mg/L	0.37 nM	~0.5 mg/L	16.5 nM	~1 mg/L	no binding	–	–
K2AC39 CD47×CEA bispecific antibody (bispecific antibody, human IgG1, kappa, lambda, κλ body with common heavy chain; CEACAM5/CEACAM6 arm light chain 1B2 (AC39)) heavy: not shown light 1: QSVLTQPPSVSAAPGQKVTISCSGSSSEITASGVSWYQQLPGTAPKLLIYDNNKRPSGIPDRFSGSKSGTSATLGITGLQTGDEADYYCGTWDFPPSRFVFGGGTKLTVLGQPKAAPSVTLFPPSSEELQANKATLVCLISDFYPGAVTVAWKADSSPVKAGVETTTPSKQSNNKYAASSYLSLTPEQWKSHRSYSCQVTHEGSTVEKTVAPTECS light 2: not shown	–	–	–	–	–	–	–	–	~3 mg/L	–
AC22 anti-CEA bivalent monoclonal antibody (antibody, human IgG1, lambda, V domains shown, also called 1G6; anti-CEA bivalent mAb of K2AC22) VH: not shown VL: QSVLTQPPSVSAAPGQKVTISCSGSSSNIANGIVSWYQQLPGTAPKLLIYFDNLRPSGIPDRFSGSKSGTSATLGITGLQTGDEADYYCGTWDFSYGIVFGGGTKLTVLG	–	–	–	–	–	–	–	–	–	no binding
